Data from US20130236470A1.

What was measured:
[1] = biological target: HLA-DR expressed by L428 cells (human); test: flow cytometry on L428 cells, antibody 31.2 ng/mL
[2] = biological target: HLA-DR expressed by L428 cells (human); test: flow cytometry on L428 cells, antibody 1.95 ng/mL
[3] = biological target: HLA-DR expressed by L428 cells (human); test: flow cytometry on L428 cells, antibody 62.5 ng/mL
[4] = biological target: HLA-DR expressed by L428 cells (human); test: flow cytometry on L428 cells, antibody 3.9 ng/mL
[5] = biological target: HLA-DR expressed by L428 cells (human); test: flow cytometry on L428 cells, antibody 7.8 ng/mL
[6] = biological target: HLA-DR expressed by L428 cells (human); test: flow cytometry on L428 cells, antibody 0.98 ng/mL
[7] = biological target: HLA-DR expressed by L428 cells (human); test: flow cytometry on L428 cells, antibody 15.6 ng/mL
[8] = biological target: HLA-DR expressed by L428 cells (human); test: flow cytometry on L428 cells, antibody 125.0 ng/mL
[9] = biological target: HLA-DR expressed by L428 cells (human); test: flow cytometry on L428 cells, antibody 0.0 ng/mL (background)
[10] = biological target: HLA-DR expressed by L428 cells (human); test: flow cytometry on L428 cells, antibody 250.0 ng/mL

commercially available antibody (clone name: LN3) known to bind to HLA-DR
Ability to bind (average strength) [1]: 928 | Ability to bind (average strength) [2]: 230 | Ability to bind (average strength) [3]: 1610 | Ability to bind (average strength) [4]: 339 | Ability to bind (average strength) [5]: 430 | Ability to bind (average strength) [6]: 181 | Ability to bind (average strength) [7]: 694 | Ability to bind (average strength) [8]: 2420 | Ability to bind (average strength) [9]: 129 | Ability to bind (average strength) [10]: 3270
